Source: US20260091082A1, “CYCLIC PEPTIDE DERIVATIVE COMPOSITION FOR TREATING OR PREVENTING EYE DISEASE” (DKS Co. Ltd., priority 2022, published 2026)
Where “and” joins values, the source holds several entries; their conditions need not be identical. Equal entries are not always repeated.

Key:
[1] = Body weight measurement during the CNV rat test; assay type: in vivo; conditions: for Body Weight (Average): Group 2, IVT inj. 200 μg/5 μL/eye single dose; for Weight (g) (Individual): Group 2 individual animals, IVT 200 μg/5 μL/eye
Procedure: The appearance, behavior, and state of excrement or the like were observed every day.
The body weight was measured on the animal arrival date, the preliminary housing end date (grouping date), the eyedrop administration start date, the laser irradiation date (Day 0), and the eyeball enucleation date (Day 14).

[2] = tested on: laser-induced choroidal neovascularization rat model; assay: Laser-induced choroidal neovascularization rat model: CNV area in choroidal flat mount (FITC-dextran); assay type: in vivo
Procedure: The groups were set as in Table 8 below. Laser irradiation was performed on the right eye in 10 animals in each group. EYLEA (registered trademark) was administered intravitreally into the right eye of individuals in Group 2 immediately after laser irradiation. For the individuals of Groups 1, 3, and 4, eyedrop administration of the administration substances of each group was performed four times a day from the day of laser irradiation to the day before eyeball enucleation.
Animals to be laser-irradiated were subjected to pupil dilation with Mydorin (registered trademark) P ophthalmic solution, and subjected to general anesthesia by intramuscular injection of a mixed solution of ketamine hydrochloride/xylazine hydrochloride (4:1, v/v) (1 mL/kg) into the thigh muscle. Then, fundus of the right eye was then observed using a slit lamp (SL-130, Carl Zeiss Meditec AG), and laser irradiation was performed at six locations using a green laser photocoagulation device (GYC-500, Nidek Co., Ltd.), avoiding thick capillaries of the retina. The laser conditions were a wavelength of 532 nm (green), a spot size of 50 μm, an irradiation time of 0.1 sec, and a laser irradiation intensity of 300 mW. Except for the individuals to be administered EYLEA (registered trademark), sodium hyaluronate (Hyalein (registered trademark) ophthalmic solution 0.3%, Santen Pharmaceutical Co., Ltd.) as an eye drop for treatment of corneal and conjunctival epithelial disorders was instilled into both eyes after laser irradiation.
Levofloxacin hydrate (CRAVIT (registered trademark) 1.5% ophthalmic solution, Santen Pharmaceutical Co., Ltd.) as a broad-spectrum antibacterial eye drop and oxybuprocaine hydrochloride (Benoxil (registered trademark) 0.4% ophthalmic solution, Santen Pharmaceutical Co., Ltd.) as an ophthalmic topical anesthetic were once instilled into the right eye of rats in Group 2 (EYLEA (registered trademark) administration group) after end of laser irradiation, and then EYLEA (registered trademark) was intravitreally administered at a dose of 200 μg/5 μL/eye using a 33 G two-stage injection needle and a microsyringe (Ito Manufacturing Co., Ltd.). The microsyringe was washed with D-PBS before administration. Hyalein (registered trademark) ophthalmic solution 0.3% was instilled into both eyes after intravitreal administration.
Eyedrop administration of the test substance and the negative control administration solution was performed in a volume of 5 μL/eye using a micropipette (Eppendorf Research Plus V, Eppendorf) at the administration period and the number of times determined for each group (see Group constitution table of Item (2)). At that time, since a test substance solution adheres to an outer side of the tip, care was taken so that the adhering test substance solution was wiped off with a Kimwipe once each time of eyedrop administration, and an excessive amount of the test substance solution was not instilled. In addition, although the tip of the pipette tip was sharp, care was taken not to damage the eyeball surface. Immediately before administration, the administration solution was lightly (about several seconds) centrifuged using a small microcentrifuge Wonder Spin, and the supernatant was used for administration.
Fourteen days after laser irradiation (Day 14), under general anesthesia by intramuscular femoral administration (1 mL/kg) of a ketamine hydrochloride/xylazine hydrochloride (4:1, v/v) mixed solution, a 4% FITC-dextran solution was administered to the tail vein at a dose of 40 mg/l mL/animal.
After 1 minute from the tail vein administration of the 4% FITC-dextran solution, rats were euthanized by excessive anesthesia by administration of 129.6 mg/mL sodium pentobarbital solution and the right eye ball was enucleated. The enucleated eyeball was fixed in a 4% paraformaldehyde phosphate buffer (FUJIFILM Wako Pure Chemical Corporation, hereinafter referred to as 4% PFA) for 12 to 30 hours at normal temperature. […]

Aflibercept [EYLEA]
Body Weight (Average) ([1]; Day 0 (Laser injection)): 155.10 g
Body Weight (Average) ([1]; Day 14 (Enucleation)): 200.52 g
Body Weight (Average) ([1]; Day −3 or Day −2 (Grouping)): 141.91 g
Weight (g) (Individual) ([1]; Enucleation (Day 14)): 191.41 g and 189.23 g and 203.15 g and 192.58 g and 215.19 g and 210.30 g and 206.10 g and 205.20 g and 197.20 g and 194.87 g
Weight (g) (Individual) ([1]; Grouping (Day −3 or −2)): 132.69 g and 135.94 g and 139.54 g and 143.39 g and 145.96 g and 144.35 g and 147.21 g and 151.85 g and 140.51 g and 137.64 g
Weight (g) (Individual) ([1]; Laser injection (Day 0)): 140.59 g and 146.82 g and 151.42 g and 154.62 g and 160.15 g and 162.32 g and 160.99 g and 169.71 g and 155.47 g and 148.87 g
Area of CNV Lesion, Mean ([2]; Group 2, IVT inj. 200 μg/5 μL/eye single dose after irradiation, 14 days after laser, N=10): 421359.3 pixel
CNV area compared with Group 1 (saline), in words ([2]; Group 2, intravitreal 200 μg/5 μL/eye, Student's t-test): CNV area was significantly reduced
Individual Value of CNV Area in Each Animal ([2]; Group 2 individual animals, IVT 200 μg/5 μL/eye, 14 days after laser): 396255.8 pixel and 417758.8 pixel and 460248.8 pixel and 470883.0 pixel and 474112.7 pixel and 444455.3 pixel and 440849.3 pixel and 374017.3 pixel and 402387.0 pixel and 332625.3 pixel
